The test concerns the target P. aeruginosa ClpGGI WT (P. aeruginosa).

On to FLRYLKASKVPLN [peptide 134], for which the ATPase activity of 1 μM ClpGGI with increasing Pep134 concentrations (saturation of the stimulation at 25 μM peptide) (ATP min^−1 monomer^−1) came to 108.

Source of the values: publication PMC8024975.
